Measurements as given in US20160082083A1 (NATIONAL RESEARCH COUNCIL OF CANADA, published 2016).

Target: cathepsin B (human, UniProt P07858 80-333)
Assay: cell-based or functional assay

Binder	inhibition of intracellular cathepsin B activity (Magic Red) in U87MG cells, overnight incubation with 20 nM protein	inhibition of secreted cathepsin B activity in U87MG CM, overnight incubation with 20 nM protein
IGFBP-2 C-terminal fragment (aas 207-328 of SEQ ID NO: 3) (other) IASKGGKHHLGLEEPKKLRPPPARTPCQQELDQVLERISTMRLPDERGPLEHLYSLHIPNCDKHGLYNLKQCKMSLNGQRGECWCVNPNTGKLIQGAPTIRGDPECHLFYNEQQEARGVHTQRMQDPWSHPQFEKTGHHHHHHHHGGQ	~50%	~70%
IGFBP-2 (from R&D systems) (other) MLPRVGCPALPLPPPPLLPLLPLLLLLLGASGGGGGARAEVLFRCPPCTPERLAACGPPPVAPPAAVAAVAGGARMPCAELVREPGCGCCSVCARLEGEACGVYTPRCGQGLRCYPHPGSELPLQALVMGEGTCEKRRDAEYGASPEQVADNGDDHSEGGLVENHVDSTMNMLGGGGSAGRKPLKSGMKELAVFREKVTEQHRQMGKGGKHHLGLEEPKKLRPPPARTPCQQELDQVLERISTMRLPDERGPLEHLYSLHIPNCDKHGLYNLKQCKMSLNGQRGECWCVNPNTGKLIQGAPTIRGDPECHLFYNEQQEARGVHTQRMQ	~50%	–
CIBP6 (aas 151-240) (other) IARNSAGVQDTEMGPCRRHLDSVLQQLQTEVYRGAQTLYVPNCDHRGFYRKRQCRSSQGQRRGPCWCVDRMGKSLPGSPDGNGSSSCPTGSSGSSTGHHHHHHHHG	–	~60%

Now from value to binder:

inhibition of intracellular cathepsin B activity (Magic Red) in U87MG cells, overnight incubation with 20 nM protein	inhibition of secreted cathepsin B activity in U87MG CM, overnight incubation with 20 nM protein	Binder
~50%	~60%	IGFBP-2 full-length protein (aas 1-328), produced at BRI-NRC (other) MLPRVGCPALPLPPPPLLPLLPLLLLLLGASGGGGGARAEVLFRCPPCTPERLAACGPPPVAPPAAVAAVAGGARMPCAELVREPGCGCCSVCARLEGEACGVYTPRCGQGLRCYPHPGSELPLQALVMGEGTCEKRRDAEYGASPEQVADNGDDHSEGGLVENHVDSTMNMLGGGGSAGRKPLKSGMKELAVFREKVTEQHRQMGKGGKHHLGLEEPKKLRPPPARTPCQQELDQVLERISTMRLPDERGPLEHLYSLHIPNCDKHGLYNLKQCKMSLNGQRGECWCVNPNTGKLIQGAPTIRGDPECHLFYNEQQEARGVHTQRMQGSGWSHPQFEKTGHHHHHHHHGGQ
–	~60%	IGFBP-6 (from R&D systems) (other) RCPGCGQGVQAGCPGGCVEEEDGGSPAEGCAEAEGCLRREGQECGVYTPNCAPGLQCHPPKDDEAPLRALLLGRGRCLPARAPAVAEENPKESKPQAGTARPQDVNRRDQQRNPGTSTTPSQPNSAGVQDTEMGPCRRHLDSVLQQLQTEVYRGAQTLYVPNCDHRGFYRKRQCRSSQGQRRGPCWCVDRMGKSLPGSPDGNGSSSCPTGSSG
~50%	–	IGFBP-5 C-terminal fragment (aas 177-272) (other) IASIISAPEMRQESEQGPCRRHMEASLQELKASPRMVPRAVYLPNCDRKGFYKRKQCKPSRGRKRGICWCVDKYGMKLPGMEYVDGDFQCHTFDSSNVEDPWSHPQFEKTGHHHHHHHHGGQ
